In assay [1] the target is yeast surface-displayed DARPin 3G146 variant 2-G4 (G150S). In words: flow cytometry on cells.
In assay [2] the target is yeast surface-displayed DARPin 3G146 variant 2-H3 (G237S). Kind of assay: flow cytometry on cells. For orientation: Flow cytometry measures light scatter and fluorescence of single cells or particles in a stream.

The values below come from article doi:10.1101/2023.11.20.567881.

For “EGFP-His6 (from UniProt P42212 1-238) (natural protein)”, the fold improvement of apparent binding affinity over 3G146 is 8 fold in assay [1] and 28 fold in assay [2].
